Values joined by “and” are separate entries in the source; they are usually repeats but may differ in a detail not shown here. Equal values may be shown once.
What was measured:
[1] = biological target: human angiopoietin-2 (human) (UniProt O15123); test: HTRF; competition with huTie-2-Fc-APC for biotinylated hAng2
[2] = biological target: human angiopoietin-1 (human) (UniProt Q15389); test: HTRF; competition with huTie-2-Fc-APC for biotinylated hAng1
[3] = biological target: mouse Tie2 (mouse) (UniProt Q02858); test: cell-based or functional assay
Sequence of mouse Tie2 (mouse) (Q02858 23-1122): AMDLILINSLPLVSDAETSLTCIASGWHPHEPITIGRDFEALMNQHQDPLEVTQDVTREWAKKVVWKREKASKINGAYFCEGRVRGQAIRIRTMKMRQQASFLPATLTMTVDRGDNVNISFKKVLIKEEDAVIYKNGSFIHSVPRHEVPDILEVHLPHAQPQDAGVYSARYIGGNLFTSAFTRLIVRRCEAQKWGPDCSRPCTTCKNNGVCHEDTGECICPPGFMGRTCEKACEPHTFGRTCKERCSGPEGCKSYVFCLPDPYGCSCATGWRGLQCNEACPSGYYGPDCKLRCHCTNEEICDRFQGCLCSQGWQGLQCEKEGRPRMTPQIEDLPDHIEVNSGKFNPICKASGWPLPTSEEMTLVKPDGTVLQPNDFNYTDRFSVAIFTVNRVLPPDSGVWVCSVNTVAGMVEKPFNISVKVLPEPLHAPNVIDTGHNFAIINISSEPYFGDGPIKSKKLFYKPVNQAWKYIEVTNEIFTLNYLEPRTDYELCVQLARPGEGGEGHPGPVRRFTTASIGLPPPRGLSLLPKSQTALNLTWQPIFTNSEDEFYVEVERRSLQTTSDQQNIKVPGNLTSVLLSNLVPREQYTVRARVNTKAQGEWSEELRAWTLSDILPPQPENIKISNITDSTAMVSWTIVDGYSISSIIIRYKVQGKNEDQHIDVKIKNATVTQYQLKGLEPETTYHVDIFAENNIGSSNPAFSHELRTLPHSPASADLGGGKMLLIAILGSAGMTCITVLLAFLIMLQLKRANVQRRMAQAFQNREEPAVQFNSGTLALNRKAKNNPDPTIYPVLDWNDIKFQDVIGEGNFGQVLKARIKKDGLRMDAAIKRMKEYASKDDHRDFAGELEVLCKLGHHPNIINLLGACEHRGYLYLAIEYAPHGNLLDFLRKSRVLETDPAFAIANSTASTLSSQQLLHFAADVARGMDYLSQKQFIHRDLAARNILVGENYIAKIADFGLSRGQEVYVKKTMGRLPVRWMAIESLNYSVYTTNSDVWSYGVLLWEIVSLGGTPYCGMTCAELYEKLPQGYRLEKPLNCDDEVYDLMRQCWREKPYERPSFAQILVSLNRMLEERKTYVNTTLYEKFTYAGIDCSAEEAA

Sequence of human angiopoietin-1 (human) (Q15389 20-498 limits assumed): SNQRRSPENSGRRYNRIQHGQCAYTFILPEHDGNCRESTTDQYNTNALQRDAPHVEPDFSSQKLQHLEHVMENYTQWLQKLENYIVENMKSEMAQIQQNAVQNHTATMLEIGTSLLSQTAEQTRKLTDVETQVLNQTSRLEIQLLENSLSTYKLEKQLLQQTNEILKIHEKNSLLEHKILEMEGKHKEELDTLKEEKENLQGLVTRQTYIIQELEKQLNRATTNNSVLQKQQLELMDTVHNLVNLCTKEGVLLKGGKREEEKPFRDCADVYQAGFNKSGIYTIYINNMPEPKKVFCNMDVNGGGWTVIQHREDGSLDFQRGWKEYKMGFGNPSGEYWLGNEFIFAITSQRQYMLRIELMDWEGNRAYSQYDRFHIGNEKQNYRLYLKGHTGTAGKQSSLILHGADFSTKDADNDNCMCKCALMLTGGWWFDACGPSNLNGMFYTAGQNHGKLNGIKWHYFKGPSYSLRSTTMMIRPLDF
Sequence of human angiopoietin-2 (human) (O15123 19-496 limits assumed): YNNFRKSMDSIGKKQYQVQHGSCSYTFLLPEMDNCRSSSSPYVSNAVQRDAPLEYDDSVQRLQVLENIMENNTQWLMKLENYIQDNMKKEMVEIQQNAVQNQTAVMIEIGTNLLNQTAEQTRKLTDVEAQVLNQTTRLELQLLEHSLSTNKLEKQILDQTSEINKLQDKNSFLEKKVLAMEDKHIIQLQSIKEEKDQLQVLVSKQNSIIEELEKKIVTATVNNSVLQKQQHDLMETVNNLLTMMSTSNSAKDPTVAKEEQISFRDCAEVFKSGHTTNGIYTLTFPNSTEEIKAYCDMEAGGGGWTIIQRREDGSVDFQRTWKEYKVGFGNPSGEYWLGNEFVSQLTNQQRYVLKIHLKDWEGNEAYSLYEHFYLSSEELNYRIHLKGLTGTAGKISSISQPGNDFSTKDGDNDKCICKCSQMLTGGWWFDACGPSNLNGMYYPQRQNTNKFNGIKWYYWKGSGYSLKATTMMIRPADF

| IC90/IC50 [1] | IC90/IC50 [2] | Tie2 phosphorylation in mouse lung endothelium (immunoprecipitation-Western blot) [3] | Substance |
| --- | --- | --- | --- |
| 4.1 and 4.4 | 41 and 71 | – | AMG 386 (Fc fusion) |
| – | – | 5 fold | recombinant Ang1 (R&D Systems Inc.) (ligand) |
